The source of these data is patent US20130129722A1.

In experiment [1] the target is Human Ang-2FD-hFc (human). The experiment can be described thus: ELISA; 16.67 nM antibody premixed with Ang-2FD-hFc, binding to coated hTie-2-mFc. In general terms: ELISA stands for enzyme-linked immunosorbent assay.
The target of experiment [2] is Mouse Ang-2FD-hFc (mouse (Mus musculus)). Described as above.
Experiment [3] concerns the target Monkey Ang-2FD-hFc (monkey (Macca fascicularis)). The description is as above.
Experiment [4] deals with Dimeric Mouse Ang-2FD conjugated to human IgG1 (mouse (Mus musculus)). The experiment can be described thus: SPR, human IgG1 antibody captured. (In general: Surface plasmon resonance follows binding to a sensor surface in real time, without labels.)
Sequence of Dimeric Mouse Ang-2FD conjugated to human IgG1 (mouse (Mus musculus)) (chain, as listed by the source limits assumed): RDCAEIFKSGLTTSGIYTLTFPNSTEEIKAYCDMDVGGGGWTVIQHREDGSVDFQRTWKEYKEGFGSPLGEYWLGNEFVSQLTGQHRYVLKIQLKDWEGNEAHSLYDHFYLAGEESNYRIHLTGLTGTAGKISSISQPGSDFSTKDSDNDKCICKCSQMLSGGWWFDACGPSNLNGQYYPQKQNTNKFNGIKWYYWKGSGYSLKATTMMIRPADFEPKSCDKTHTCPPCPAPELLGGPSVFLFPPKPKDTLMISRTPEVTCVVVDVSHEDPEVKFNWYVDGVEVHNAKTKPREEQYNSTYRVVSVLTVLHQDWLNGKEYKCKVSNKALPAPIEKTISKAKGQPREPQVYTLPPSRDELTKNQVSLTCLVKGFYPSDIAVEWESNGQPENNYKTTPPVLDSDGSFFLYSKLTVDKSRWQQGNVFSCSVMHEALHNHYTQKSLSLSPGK
In experiment [5] the target is Dimeric Human Ang-2FD conjugated to human IgG1 (human). The experiment can be described thus: SPR, human IgG1 antibody captured.
Sequence of Dimeric Human Ang-2FD conjugated to human IgG1 (human) (chain, as listed by the source limits assumed): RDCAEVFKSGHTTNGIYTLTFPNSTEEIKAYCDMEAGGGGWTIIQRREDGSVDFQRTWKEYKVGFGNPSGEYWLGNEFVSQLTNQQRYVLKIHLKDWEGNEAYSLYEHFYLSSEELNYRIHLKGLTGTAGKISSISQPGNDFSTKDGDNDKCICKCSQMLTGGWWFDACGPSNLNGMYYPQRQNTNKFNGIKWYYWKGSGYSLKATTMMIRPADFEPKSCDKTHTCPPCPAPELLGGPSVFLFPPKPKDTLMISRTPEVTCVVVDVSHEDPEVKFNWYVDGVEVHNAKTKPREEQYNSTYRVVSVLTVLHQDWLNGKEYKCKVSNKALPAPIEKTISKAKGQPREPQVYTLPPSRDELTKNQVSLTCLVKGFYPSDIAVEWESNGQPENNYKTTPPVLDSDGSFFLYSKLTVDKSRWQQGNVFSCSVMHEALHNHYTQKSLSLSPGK
Experiment [6] deals with Dimeric Monkey Ang-2FD conjugated to human IgG1 (monkey (Macca fascicularis)). The experiment can be described thus: SPR, human IgG1 antibody captured.
Sequence of Dimeric Monkey Ang-2FD conjugated to human IgG1 (monkey (Macca fascicularis)) (chain, as listed by the source limits assumed): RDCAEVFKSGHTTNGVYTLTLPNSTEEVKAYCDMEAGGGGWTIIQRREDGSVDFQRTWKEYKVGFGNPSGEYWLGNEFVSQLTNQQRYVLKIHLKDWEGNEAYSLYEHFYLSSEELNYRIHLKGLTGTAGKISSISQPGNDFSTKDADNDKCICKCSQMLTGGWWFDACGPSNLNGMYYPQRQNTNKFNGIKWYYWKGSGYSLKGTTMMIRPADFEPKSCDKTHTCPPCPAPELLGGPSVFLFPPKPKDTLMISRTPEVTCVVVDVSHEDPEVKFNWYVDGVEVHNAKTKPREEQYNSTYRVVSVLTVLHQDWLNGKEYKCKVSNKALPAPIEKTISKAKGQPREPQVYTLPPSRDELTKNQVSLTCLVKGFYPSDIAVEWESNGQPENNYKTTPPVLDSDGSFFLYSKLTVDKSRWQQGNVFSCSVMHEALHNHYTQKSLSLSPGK

As usually defined, the Kd is the concentration at which binding is half-saturated.

For Control I (Ab) (antibody), the Percent Blocking of Ang-2FD Binding to Tie-2 in experiment [1] is 97.3%; in experiment [2], 82.2%; in experiment [3] it was 98.5%.

B1: H1H724N (antibody, V domains shown)
VH: QVQLVESGGGVVQPGRSLRLSCAASGFTLSNYGMHWVRQAPGKGLEWVAVIWHDGSNTYYADSVKGRFTISRDNSKNTLYLQMNSLRAEDTAVYYCTREGLDFWSGYYPNWFDPWGQGTLVTVSS
VL: DIQMTQSPSSLSASVGDRVTITCRASQGIRNDLGWYQQKPGKAPKRLIYAASNLQGGVPSRFSGSGSGTEFTLTISSLQPEDFAAYYCLQHNIYPLTFGGGTKVEIK
As for B1, the values for the Percent Blocking of Ang-2FD Binding to Tie-2 in experiment [1], in experiment [2] and in experiment [3] were 96.6%, 97.1% and 96.6%, respectively. For the same molecule, the Kd came out at 0.185 nM in experiment [4], 0.115 nM in experiment [5] and 0.239 nM in experiment [6]. The T1/2 in experiment [4] was found to be 1.4 h; in experiment [5], 1.78 h; in experiment [6] it was 2.88 h.

B2: H1H693P (antibody, human IgG1, V domains shown)
VH: EVQLVESGGGLVQPGESLRLSCAASGFTFSSYAMSWVRQGPGKGLEWVSSISGSGGTTYYADSVEGRFTISRDNSKNTLYLHMNSLRAEDTAVYYCAKDFLDYSTYLAFDLWGQGTMVTVSS
VL: DIQMTQSPSSVSASVGDRVTITCRASQGISSWLAWYQQKPGKAPKLLIYAASSLQSGVPSRFSGSGSGTDFTLTISSLQPEDFATYYCQQANSFPRTFGQGTKVEIK
Regarding B2, the Percent Blocking of Ang-2FD Binding to Tie-2 in experiment [1] came out at 73.9%; in experiment [2] it was 63.6%. Further, the Kd came to 0.446 nM in experiment [4], 0.5 nM in experiment [5] and 1.17 nM in experiment [6]. Also, the T1/2 in experiment [4] is 1.06 h; in experiment [5], 0.618 h; in experiment [6], 0.293 h.
